# Data as given in US20040001835A1, “Prevention or treatment of cancer using integrin alphavbeta3 antagonists in combination with other agents” (MedImmune, Inc., priority 2002, published 2004).
# “Also recorded” adds a separate entry of the source.
# B1: Vitaxin®: humanized blocking monoclonal antibody that binds Integrin αVβ3 (MEDI-522, MedImmune); humanized and optimized version of LM609 (antibody, chains of the INN, looked up, V domains shown)
# VH: QVQLVESGGGVVQPGRSLRLSCAASGFTFSSYDMSWVRQAPGKGLEWVAKVSSGGGSTYYLDTVQGRFTISRDNSKNTLYLQMNSLRAEDTAVYYCARHLHGSFASWGQGTTVTVSS
# VL: EIVLTQSPATLSLSPGERATLSCQASQSISNFLHWYQQRPGQAPRLLIRYRSQSISGIPARFSGSGSGTDFTLTISSLEPEDFAVYYCQQSGSWPLTFGGGTKVEIK
# Tests used:
# [1] = biological target: T1, human β3 (αvβ3 on HEK293 cells) (Homo sapiens, UniProt P05106); assay: FACS analysis of HEK293 cells transfected with human β3 cDNA; type: binding; settings: wild type human β3, flow cytometry, FIG. 4
# T1 construct: expressed in transfected cells; host or cells: HEK293
# Excerpt: (§1) FIG. 4. Binding of Integrin αvβ3 specific antibodies to human β3 containing rat residues.
# (§2) Sequence comparison of residues 164 to 202 of β3 integrins from different species and design of mutations. To further characterize the binding epitope of Vitaxin®, the gene encoding β3 was cloned and sequenced from hamster cDNA. The amino acids in the region previously proposed to contain the LM609 binding epitope are shown above (dashed lines depict conserved residues). To determine which residues in the human sequence were essential for antibody binding, the amino acids shown in color were mutated to the corresponding rat residues. The resulting genes were transfected to HEK293 cells which express endogenous human αv. Resulting cell lines were analyzed by flow cytometry for antibody binding.
# (§3) This protocol is used to assess the surface expression of integrins in HEK-293 cells transfected with various Integrin subunits. Primary antibodies bound to the integrins are detected by fluorochrome-conjugated secondary antibodies and analyzed by flow cytometry.
# (§4) 1. Wash adherent cells twice with 5 ml of PBS.
# (§5) 2. Add 1.5 ml of trypsin solution or cell dissociation solution, incubate at 37_C. foir 2 min.
# (§6) 3. Add 3 ml of culture medium or FACs buffer to the plate and loosen cells from the plate by pipetting. Count cells. Resuspend cells in FACs buffer at 5×10^6 per ml.
# 4. […]
# [2] = biological target: T2, human β3 Mutant A + C (E171Q D179T T182S) (Homo sapiens, UniProt P05106, D205T/E197Q/T208S); assay: FACS analysis of HEK293 transfectants, human β3 containing rat residues; type: binding; settings: flow cytometry
# T2 construct: expressed in transfected cells; host or cells: HEK293
# Excerpt: as §1, §2, §3, §4, §5, §6
# 4. Transfer an aliquot of 5×10^5 cells (100 μl) into microfuge tubes containing 10 μg mouse IgG or human IgG. Incubate cells for 20 min at RT to block IgG receptor sites. Note: use mouse IgG for blocking when using human primary mAb; use human IgG for blocking when using mouse primary mAb.
# 5. Add […] of Vitaxin®, or other primary mAb, and incubate for 20 min at RT.
# 6. Wash twice with 500 μl of FACS buffer, spinning cells at 1500 rpm for 5 minutes.
# 7. Add 0.5 mg of goat anti-human IgG Alexa 488, or other secondary antibodies, and incubate for 20 min at RT.
# 8. Wash twice with 500 μl FACS buffer, spinning cells at 1500 rpm for 5 minutes.
# 9. Resuspend in 500 μl buffer for FACS analysis.
# 10. Use unstained cells for background. For negative control, use secondary antibody alone.
# [3] = biological target: T3, mouse Integrin αVβ3 (Mus musculus, UniProt O54890); assay: Binding to mouse Integrin αVβ3
# T3 sequence (O54890 26-787): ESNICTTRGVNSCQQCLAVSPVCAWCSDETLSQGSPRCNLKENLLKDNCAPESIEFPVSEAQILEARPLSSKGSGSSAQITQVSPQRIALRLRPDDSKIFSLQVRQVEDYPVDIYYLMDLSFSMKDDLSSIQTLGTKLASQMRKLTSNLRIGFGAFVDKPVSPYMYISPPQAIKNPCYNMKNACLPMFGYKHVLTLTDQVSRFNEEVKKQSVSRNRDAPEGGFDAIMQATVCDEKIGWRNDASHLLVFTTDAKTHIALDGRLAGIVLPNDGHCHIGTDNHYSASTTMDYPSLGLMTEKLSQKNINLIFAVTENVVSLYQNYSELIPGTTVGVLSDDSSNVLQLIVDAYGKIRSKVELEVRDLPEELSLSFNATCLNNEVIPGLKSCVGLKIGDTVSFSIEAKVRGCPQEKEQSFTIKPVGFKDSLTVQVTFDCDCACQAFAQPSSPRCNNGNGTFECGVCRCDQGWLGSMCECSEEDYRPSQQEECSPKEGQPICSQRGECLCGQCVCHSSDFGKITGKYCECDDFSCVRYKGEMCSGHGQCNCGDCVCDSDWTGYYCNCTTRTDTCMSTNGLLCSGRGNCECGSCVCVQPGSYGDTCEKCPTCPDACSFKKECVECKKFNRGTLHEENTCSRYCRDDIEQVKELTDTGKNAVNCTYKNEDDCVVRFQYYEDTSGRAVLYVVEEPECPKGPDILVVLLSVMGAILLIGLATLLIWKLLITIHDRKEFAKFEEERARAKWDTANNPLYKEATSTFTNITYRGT
# T3 sequence (P43406 31-885 partner limits assumed): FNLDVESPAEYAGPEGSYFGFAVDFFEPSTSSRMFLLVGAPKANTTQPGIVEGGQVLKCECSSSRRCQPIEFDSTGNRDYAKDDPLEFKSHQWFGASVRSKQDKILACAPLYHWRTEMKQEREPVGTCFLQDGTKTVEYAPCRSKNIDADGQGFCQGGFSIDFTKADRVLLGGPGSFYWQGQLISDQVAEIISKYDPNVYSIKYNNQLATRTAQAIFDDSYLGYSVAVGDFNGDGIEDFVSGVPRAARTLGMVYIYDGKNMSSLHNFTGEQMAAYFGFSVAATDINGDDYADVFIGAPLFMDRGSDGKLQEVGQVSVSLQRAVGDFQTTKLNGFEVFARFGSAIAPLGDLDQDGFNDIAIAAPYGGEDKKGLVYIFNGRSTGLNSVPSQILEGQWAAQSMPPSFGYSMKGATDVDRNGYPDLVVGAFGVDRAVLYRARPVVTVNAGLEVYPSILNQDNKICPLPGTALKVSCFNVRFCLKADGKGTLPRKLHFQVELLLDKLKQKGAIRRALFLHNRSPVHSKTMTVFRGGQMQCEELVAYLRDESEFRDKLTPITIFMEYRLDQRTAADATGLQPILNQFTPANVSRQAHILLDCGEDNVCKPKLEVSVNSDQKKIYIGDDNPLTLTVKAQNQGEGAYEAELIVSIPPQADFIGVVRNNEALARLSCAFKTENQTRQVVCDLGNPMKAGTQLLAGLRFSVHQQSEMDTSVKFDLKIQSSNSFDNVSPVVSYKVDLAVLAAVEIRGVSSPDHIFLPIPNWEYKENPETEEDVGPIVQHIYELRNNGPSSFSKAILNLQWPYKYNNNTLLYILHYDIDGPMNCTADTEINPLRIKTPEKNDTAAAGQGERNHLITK
# T3 sequence (P43406 887-1044 partner limits assumed): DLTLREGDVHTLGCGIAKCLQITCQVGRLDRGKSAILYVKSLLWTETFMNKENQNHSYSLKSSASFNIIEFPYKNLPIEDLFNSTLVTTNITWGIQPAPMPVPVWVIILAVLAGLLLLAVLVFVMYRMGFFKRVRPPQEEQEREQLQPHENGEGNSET
# T2 sequence (P05106 27-788 E197Q/D205T/T208S): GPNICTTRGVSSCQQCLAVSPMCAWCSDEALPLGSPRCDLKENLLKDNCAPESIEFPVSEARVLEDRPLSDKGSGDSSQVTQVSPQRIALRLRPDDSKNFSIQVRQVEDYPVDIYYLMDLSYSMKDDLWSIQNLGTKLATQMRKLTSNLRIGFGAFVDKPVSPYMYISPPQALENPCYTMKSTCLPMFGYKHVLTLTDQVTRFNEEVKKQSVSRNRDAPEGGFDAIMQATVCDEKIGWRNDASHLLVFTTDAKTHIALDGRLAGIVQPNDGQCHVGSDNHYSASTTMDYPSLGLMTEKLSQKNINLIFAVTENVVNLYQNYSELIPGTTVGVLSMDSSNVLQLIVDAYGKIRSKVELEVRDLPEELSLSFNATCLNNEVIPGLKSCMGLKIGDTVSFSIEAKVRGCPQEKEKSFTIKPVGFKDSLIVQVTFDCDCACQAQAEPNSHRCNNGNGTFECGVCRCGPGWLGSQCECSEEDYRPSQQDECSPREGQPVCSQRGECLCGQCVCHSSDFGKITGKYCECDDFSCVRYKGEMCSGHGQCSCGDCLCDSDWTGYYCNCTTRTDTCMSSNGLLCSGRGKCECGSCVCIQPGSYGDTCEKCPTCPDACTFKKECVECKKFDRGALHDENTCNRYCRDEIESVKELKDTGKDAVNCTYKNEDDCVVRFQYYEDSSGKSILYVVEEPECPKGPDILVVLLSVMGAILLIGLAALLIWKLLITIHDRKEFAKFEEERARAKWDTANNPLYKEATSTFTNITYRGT
# T2 sequence (P06756 31-889 partner limits assumed): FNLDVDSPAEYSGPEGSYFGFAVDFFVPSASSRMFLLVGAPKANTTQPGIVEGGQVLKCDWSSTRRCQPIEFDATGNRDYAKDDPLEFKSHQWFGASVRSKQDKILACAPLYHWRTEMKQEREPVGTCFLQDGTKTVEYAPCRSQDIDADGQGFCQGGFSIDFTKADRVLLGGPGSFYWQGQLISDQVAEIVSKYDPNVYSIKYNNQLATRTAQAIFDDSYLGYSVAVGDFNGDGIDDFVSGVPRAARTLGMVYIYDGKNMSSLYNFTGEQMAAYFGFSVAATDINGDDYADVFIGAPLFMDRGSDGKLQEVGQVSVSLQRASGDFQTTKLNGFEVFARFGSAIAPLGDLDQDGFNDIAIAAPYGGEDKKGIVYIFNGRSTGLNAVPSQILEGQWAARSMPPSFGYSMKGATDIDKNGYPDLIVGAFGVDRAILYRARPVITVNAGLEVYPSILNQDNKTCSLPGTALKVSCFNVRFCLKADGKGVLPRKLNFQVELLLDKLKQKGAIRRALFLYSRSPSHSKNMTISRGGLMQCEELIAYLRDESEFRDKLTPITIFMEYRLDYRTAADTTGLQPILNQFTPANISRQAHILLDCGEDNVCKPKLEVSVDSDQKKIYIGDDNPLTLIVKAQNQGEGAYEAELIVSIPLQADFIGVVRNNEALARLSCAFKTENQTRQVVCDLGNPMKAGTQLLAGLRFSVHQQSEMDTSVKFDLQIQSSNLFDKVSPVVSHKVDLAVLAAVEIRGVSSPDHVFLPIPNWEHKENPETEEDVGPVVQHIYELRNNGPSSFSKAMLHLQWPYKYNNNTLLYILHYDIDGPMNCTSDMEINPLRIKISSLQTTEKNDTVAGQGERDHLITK
# T2 sequence (P06756 891-1048 partner limits assumed): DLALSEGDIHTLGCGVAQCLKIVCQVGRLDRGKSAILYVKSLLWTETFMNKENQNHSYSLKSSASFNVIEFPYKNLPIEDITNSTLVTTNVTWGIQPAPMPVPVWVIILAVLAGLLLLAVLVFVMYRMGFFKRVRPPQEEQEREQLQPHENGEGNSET
# T1 sequence (P05106 27-788): as the sequence (P05106 27-788 E197Q/D205T/T208S) above, with Q171E, T179D, S182T counted along it
# T1 sequence (P06756 31-889 partner limits assumed): as the sequence (P06756 31-889 partner limits assumed) above
# T1 sequence (P06756 891-1048 partner limits assumed): as the sequence (P06756 891-1048 partner limits assumed) above
molecule,measurement,setting,value
B1,binding to HEK293 cells transfected with human β3 cDNA,[1],detectable
same,effect of Mutations A and C combined on antibody binding,[2],disrupts binding; also recorded: eliminated binding
same,binding to mouse Integrin αVβ3,[3],do not bind
